Key:
[1] = target: T1, hFc-tagged human 4-1BB extracellular domain protein (4-1BB-hFc) (human, UniProt Q07011 24-186, limits assumed); assay: ELISA, coated human 4-1BB-hFc; Ab 0.0001 ug/ml
T1 construct: also called immunogen A; 4-1BB^ECD-hFc; not shown: human IgG Fc fragment (hFc) of the pCpC vector
Experimental: (§1) The purified immunogen A (4-1BB-hFc), monkey 4-1BB-his, and mouse 4-1BB-his obtained in Example 1 [for the preparation method, see step 1 of Example 1, preparation of immunogen A], of which the extracellular domain of monkey-derived 4-1BB protein (purchased from ACRO biosystems), the extracellular domain of mouse 4-1BB protein (purchased from sino biological) or other immune detection point proteins respectively were diluted with PBS to a final concentration of 1.0 μg/mL, then added with […] per well to 96-well ELISA plate. It was sealed with plastic film and incubated at 4° C. overnight. The next day, the plate was washed twice with the plate-washing solution [PBS containing 0.01% (v/v) Tween20] and blocking solution [PBS containing 0.01% (v/v) Tween 20 and 1% (v/v) BSA] was added and blocked at room temperature for 2 hours. The blocking solution was discarded and 100 μl of the purified 4-1BB antibody obtained in Example 2 was added per well. After incubated at 37° C. for 2 hours, the plate was washed 3 times with a plate-washing solution [PBS containing 0.01% (v/v) Tween20]. A secondary antibody (purchased from Sigma) labeled with HRP (horseradish peroxidase) was added, and after incubated at 37° C. for 2 hours, the plate was washed 3 times with a plate-washing solution [PBS containing 0.01% (v/v) Tween20]. 100 μl of TMB substrate was added per well. After incubated for 30 minutes at room temperature, 100 μl of stop buffer (1.0N HCl) was added per well. The A450 nm values were read using an ELISA plate reader (SpectraMax 384plus, Molecular Device).

[2] = target: T2, monkey 4-1BB on CHOK1 cells (monkey); assay: FACS, CHOK1-c4-1BB cells; Ab 10 ug/ml
T2 construct: whole, on cells; also called CHOK1-c4-1BB
Excerpt: (§2) The pIRES plasmid carrying the full-length gene of monkey-derived […] (the preparation method is the same as the preparation method of the pCpC vector carrying the human-derived IgG Fc fragment (hFc) in “Preparation of immunogen A” of the step (1) in Example 1, in which the database accession number of the amino acid sequence of the extracellular region of monkey 4-1BB protein (Phe19-Thr239) is G7PSE7) was transfected into CHOK1 cell line to obtain CHOK1 stable transfected cell line containing monkey 4-1BB (herein referred to as CHOK1-c4-1BB stable cell line). The CHOK1-h4-1BB stable cell line and the CHOK1-c4-1BB stable cell line were expanded and cultivated to 90% confluence in T-75 cell culture flasks. The medium was exhausted, and washed twice with HBSS buffer (Hanks Balanced Salt Solution, purchased from Invitrogen), and then the cells were treated and collected with enzyme-free cell dissociation solution (Versene solution, purchased from Life Technology). The cells were washed twice with HBSS buffer, and after cell counting, the cells were diluted with HBSS buffer to 2×10⁶ cells per ml, and 1% goat serum blocking solution was added, the percentage being the mass percentage. It was incubated on ice for 30 minutes, and then washed twice with HBSS buffer by centrifugation. The collected cells were suspended in FACS buffer (HBSS containing 1% BSA, the percentage was the mass percentage) to 2×10⁶ cells/mL, and 100 μl per well was added to a 96-well FACS reaction plate. The purified 4-1BB antibody test sample obtained in Example 2 was added, 100 microliters per well and incubated on ice for 2 hours. […] It was washed three times with FACS buffer by centrifugation, and 100 μl of fixative [4% (v/v) paraformaldehyde] per well was added to suspend cells, and washed twice with FACS buffer after 10 minutes by centrifugation. The cells were suspended with 100 microliters of FACS buffer, and the results were detected and analyzed with FACS (FACS Calibur, purchased from BD).

[3] = target: T1, hFc-tagged human 4-1BB extracellular …; assay: ELISA, coated human 4-1BB-hFc; Ab 0.08 ug/ml
Experimental: as §1

[4] = target: T3, human 4-1BB, full length, on transfected cells (human, UniProt Q07011 24-255); assay: FACS, CHOK1-h4-1BB cells; Ab 0.4 ug/ml
T3 construct: whole, on cells; also called CHOK1-h4-1BB
Excerpt: as §2

[5] = target: T3, human 4-1BB, full length, on …; assay: FACS, CHOK1-h4-1BB cells; Ab 0.016 ug/ml
Excerpt: as §2

[6] = target: T1, hFc-tagged human 4-1BB extracellular …; assay: ELISA, coated human 4-1BB-hFc; Ab 2 ug/ml
Experimental: as §1

[7] = target: T3, human 4-1BB, full length, on …; assay: FACS, CHOK1-h4-1BB cells; Ab 0.00013 ug/ml
Excerpt: as §2

[8] = target: T1, hFc-tagged human 4-1BB extracellular …; assay: ELISA, coated human 4-1BB-hFc; Ab 0.0032 ug/ml
Experimental: as §1

[9] = target: T3, human 4-1BB, full length, on …; assay: FACS, CHOK1-h4-1BB cells; Ab 0.00064 ug/ml
Excerpt: as §2

[10] = target: T3, human 4-1BB, full length, on …; assay: FACS, CHOK1-h4-1BB cells; Ab 0.08 ug/ml
Excerpt: as §2

[11] = target: T2, monkey 4-1BB on CHOK1 cells; assay: FACS, CHOK1-c4-1BB cells; Ab 0.00064 ug/ml
Excerpt: as §2

[12] = target: T1, hFc-tagged human 4-1BB extracellular …; assay: ELISA, coated human 4-1BB-hFc; Ab 0.4 ug/ml
Experimental: as §1

[13] = target: T1, hFc-tagged human 4-1BB extracellular …; assay: ELISA: human 4-1BB-hFc coated at 1.0 µg/mL, antibody titrated, HRP secondary antibody, OD450
Experimental: as §1

T3 sequence (Q07011 24-255): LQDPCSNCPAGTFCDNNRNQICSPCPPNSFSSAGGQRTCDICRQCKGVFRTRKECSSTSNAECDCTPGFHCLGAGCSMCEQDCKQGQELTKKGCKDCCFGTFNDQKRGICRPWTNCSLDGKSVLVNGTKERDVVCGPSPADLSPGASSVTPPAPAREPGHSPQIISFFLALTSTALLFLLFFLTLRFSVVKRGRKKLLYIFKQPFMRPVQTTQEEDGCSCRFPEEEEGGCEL

| Binder | OD450 nm [1] | average fluorescence intensity [2] | OD450 nm [3] | average fluorescence intensity [4] | average fluorescence intensity [5] | OD450 nm [6] | average fluorescence intensity [7] | OD450 nm [8] | average fluorescence intensity [9] | average fluorescence intensity [10] | average fluorescence intensity [11] | OD450 nm [12] | EC50 (read off the curve) [13] |
| --- | --- | --- | --- | --- | --- | --- | --- | --- | --- | --- | --- | --- | --- |
| 52F4G2 (antibody, V domains shown) VH: QVQLQESGPGLVKPSETLSLTCAVSGYSISSGYYWGWIRQPPGKGLEWIGSIFHSGSSYYNPSLKSRVTISVDTSKNQFSLKLRSVTAADTAVYYCARESSGWNCFDYWGQGTLVTVSS VL: DIQMTQSPSTLSASVGDRVTITCRASQTISTWLAWYQQKPGKAPKLLIYKASNLESGVPSRFSGSGSGTEFTLTISSLQPDDFATYYCQQYNSYSITFGQGTRLEIK | 0.26 OD450 nm | 736 MFI | 3.08 OD450 nm | 584 MFI | 141 MFI | 3.1 OD450 nm | 4.8 MFI | 0.89 OD450 nm | 11.7 MFI | 410 MFI | 4.5 MFI | 3.09 OD450 nm | ~0.007 µg/mL |
| 170D7F2 (antibody, V domains shown) VH: QVQLVQSGAEVKKPGASVKVSCKASGYTFTSYDINWVRQATGQGLEWMGWMNPNSGNTGYAQKFQGRVTMTRNTSISTAYMELSSLRSEDTAVYYCARETGPFDYWGQGTLVTVSS VL: DIQMTQSPSSLSASVGDRVTITCRASQRINNYLNWYQQKPGKAPKLLIYGASSLQSGVPSRFSGSGSGTDFTLTISSLQPEDFATYYCQQSYSTPFTFGPGTKVDIK | 0.13 OD450 nm | 700 MFI | 3.24 OD450 nm | 540 MFI | 48.8 MFI | 3.49 OD450 nm | 2.6 MFI | 0.48 OD450 nm | 4.9 MFI | 183 MFI | 4 MFI | 3.5 OD450 nm | ~0.02 µg/mL |
| 182A5B3 (antibody, V domains shown) VH: QVQLVQSGAEVKKPGASVKVSCKASGYTFTSYDINWVRQATGQGLEWMGWMNPNSGNTGYVQKFQGRVTMTRNTSISTAYMELSSLRSEDTAVYYCARETGPFDYWGQGTLVTVSS VL: not shown | 0.13 OD450 nm | 746 MFI | 3.29 OD450 nm | 530 MFI | 52.7 MFI | 3.54 OD450 nm | 2.6 MFI | 0.38 OD450 nm | 5 MFI | 200 MFI | 4.4 MFI | 3.56 OD450 nm | ~0.02 µg/mL |
| 113F6C6 (antibody, V domains shown, also called 4-1BB fully human antibody 113F6C6; 113F6F6) VH: QVQLVESGGGVVQPGRSLRLSCAASGLTFSSYGMHWVRQAPGKGLEWVAVIWYDGSNKYYADSVKGRFTISRDNSKNTLYLQMNSLRAEDTAVYYCAREEVLWFGELSYNYYYGMDVWGQGTTVTVSS VL: DIQMTQSPSSLSASVGDRVTITCRASQGISNYLAWYQQKPGKVPKLLIYAASTLQSGVPSRFSGSGSGTDFTLTISSLQPEDVATYYCQKYNSVPLTFGGGTKVEIK | – | 426 MFI | – | 323 MFI | 46.2 MFI | – | 2.7 MFI | – | 4.8 MFI | 154 MFI | 5.5 MFI | – | ~0.02 µg/mL |
| 289B6G6 (antibody, V domains shown) VH: QVQLQESGPGLVRPSETLSLTCAVSGYSISSGYYWGWIRQPPGKGLEWIGSIFHSGNTYYNPSLKSRVIVSGDTSKNQFSLKLSSVTAADTAVYYCTRESSGFNVFDIWGQGTMVTVSS VL: not shown | 0.07 OD450 nm | 601 MFI | 2.73 OD450 nm | 1520 MFI | 101 MFI | 2.77 OD450 nm | 4 MFI | 0.34 OD450 nm | 8.9 MFI | 453 MFI | 5.3 MFI | 2.79 OD450 nm | ~0.02 µg/mL |
| 57B3D10 (antibody, V domains shown, also called 4-1BB fully human antibody 57B3D10) VH: QVQLQESGPGLVKPSETLSLTCTVSGGSISSYYWSWIRQPPGKGLEWIGYIYYSGSTNYNPSLKSRVTISVDTSKSQFSLKLTSVTAADTAVYYCAKDSDYYGSGSYSYWYFDLWGRGTLVTVSS VL: EIVMTQSPATLSVSPGERATLSCRASQSVSSNLAWYQQKPGQAPRLLIYGASTRAPGIPARFSGSGSGTEFTLTISSLQSEDFAVYYCQQYNNWPLTFGGGTKVEIK | – | 581 MFI | – | 490 MFI | 148 MFI | – | 4.9 MFI | – | 12.5 MFI | 389 MFI | 5.6 MFI | – | ~0.02 µg/mL |
| 118F3A2 (antibody, V domains shown) VH: QVQLQQWGAGLLKPSETLSLTCGVYGGSFSTNYWSWIRQSPGKGLEWIGEINHSGNTEYNPSLKSRLTISIDTSKNQFSLKLTSVTAADTAVYYCARMGYHSPSFDFWGQGVLVTVSS VL: KIVMTQSPATLSVSPGERATLPCRVSQGIGSNLAWYQQKPGQAPRLLIYGASTRATGVPARFSGSGSGSEFTLTISSLQSEDLALYYCQQYNNWPLTFGGGTKVEIK | 0.43 OD450 nm | 735 MFI | 2.26 OD450 nm | 508 MFI | 125 MFI | 2.72 OD450 nm | 4.4 MFI | 0.54 OD450 nm | 10.8 MFI | 346 MFI | 4.9 MFI | 2.73 OD450 nm | ~0.03 µg/mL |

Source: US20200347144A1 (SHANGHAI HYAMAB BIOTECH, published 2020)
